According to US20220119793A1:

Target: α-thrombin
Assay: cell-based or functional assay

maximal second-order rate constant (k2) of thrombin inhibition, at ~20 µg/mL heparin: 5e+06 M⁻¹ s⁻¹
Substance: human heparin cofactor II 60-sTyr-73-sTyr (from UniProt P05546 20-499)
